The source of these data is publication PMC6720452, “Structural Basis for Recruitment of DAPK1 to the KLHL20 E3 Ligase” (Structure(London, England:1993), 2019).

For the experiment, the target named is T1, KLHL20 Kelch domain (human, UniProt Q9Y2M5 303-605).
T1 construct: Kelch domain of human KLHL20, Uniprot Q9Y2M5 isoform 1, M303-E605; structure traced from residues 317 to 601; Used for SPR (amine-coupled) and crystallisation; also called untagged KLHL20 Kelch; source: E. coli BL21(DE3)R3-pRARE2, purified (nickel sepharose, size exclusion, anion exchange)
T1 sequence (looked up): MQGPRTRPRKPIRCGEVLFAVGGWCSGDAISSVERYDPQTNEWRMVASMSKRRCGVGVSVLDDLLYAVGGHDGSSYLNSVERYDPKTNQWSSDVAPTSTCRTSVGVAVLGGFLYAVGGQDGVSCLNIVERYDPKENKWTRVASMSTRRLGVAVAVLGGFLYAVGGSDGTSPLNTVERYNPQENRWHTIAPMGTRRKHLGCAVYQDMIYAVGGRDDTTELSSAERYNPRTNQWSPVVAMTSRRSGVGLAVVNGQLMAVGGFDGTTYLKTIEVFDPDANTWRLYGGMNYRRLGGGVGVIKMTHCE
Description: crystal structure; KLHL20 Kelch domain 12 mg/mL with 3 mM DAPK1 peptide; sitting drop, 2 M sodium chloride, 0.1 M acetate pH 4.5, 20°C; 1.1 Å. As to conditions: both partners purified.

B1: 11-residue DAPK1 peptide (crystallization peptide) (peptide)
peptide: LGLPDLVAKYN
notes: also called LT1342; source: synthetic peptide, bought: LifeTein
For the molecule B1, the binding result is reported as “binds”.
